Reference: article PMC10786891, “Massively parallel profiling of RNA-targeting CRISPR-Cas13d”

T1: EsCas13d, nuclease-dead (Eubacterium siraeum, UniProt B0MS50, R295A;H300A;R849A;H854A)
T1 sequence: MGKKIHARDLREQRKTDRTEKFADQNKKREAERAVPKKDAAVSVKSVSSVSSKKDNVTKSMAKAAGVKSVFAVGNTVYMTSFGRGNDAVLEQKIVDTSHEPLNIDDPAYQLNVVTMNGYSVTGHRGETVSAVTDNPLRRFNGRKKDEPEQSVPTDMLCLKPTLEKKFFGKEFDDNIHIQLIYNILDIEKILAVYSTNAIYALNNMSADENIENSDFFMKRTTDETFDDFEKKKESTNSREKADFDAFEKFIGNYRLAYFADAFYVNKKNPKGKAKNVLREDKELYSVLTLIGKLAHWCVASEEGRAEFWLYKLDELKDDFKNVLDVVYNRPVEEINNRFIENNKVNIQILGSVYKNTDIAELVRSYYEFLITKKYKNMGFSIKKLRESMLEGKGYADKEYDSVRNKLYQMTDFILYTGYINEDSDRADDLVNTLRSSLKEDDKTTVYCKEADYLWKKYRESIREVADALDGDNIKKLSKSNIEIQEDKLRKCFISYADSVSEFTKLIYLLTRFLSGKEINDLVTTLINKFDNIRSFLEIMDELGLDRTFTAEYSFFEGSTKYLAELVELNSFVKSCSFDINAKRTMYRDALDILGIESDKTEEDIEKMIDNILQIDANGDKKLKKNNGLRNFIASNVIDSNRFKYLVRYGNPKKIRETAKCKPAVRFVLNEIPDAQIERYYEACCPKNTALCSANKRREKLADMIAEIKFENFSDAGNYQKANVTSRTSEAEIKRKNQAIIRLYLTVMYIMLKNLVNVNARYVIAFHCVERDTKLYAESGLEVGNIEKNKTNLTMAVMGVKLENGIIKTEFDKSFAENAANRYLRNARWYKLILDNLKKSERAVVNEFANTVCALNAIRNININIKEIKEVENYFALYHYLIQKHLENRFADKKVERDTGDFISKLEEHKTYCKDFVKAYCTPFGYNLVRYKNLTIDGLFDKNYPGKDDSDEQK

B1: target 1 insG 3' of 4,insA 3' of 3 (mixed)
RNA 1: CACCCGUGCAAAAAUGCAGGGGUCUAAAACUGAGCGGAUAACCUCUCUAUGG
RNA 2: GGGAAUGGAUCCACAUCUACGAAUUCGUACCAUAGAGAGGUUAUCCGCGUACACCGAGAUCGGAAGAGCACACGU
B2: target 1 C2G,A9C (mixed)
RNA 1: CACCCGUGCAAAAAUGCAGGGGUCUAAAACUGAGCGGAUAACCUCUCUAUGG
RNA 2: GGGAAUGGAUCCACAUCUACGAAUUCGUACCAUAGAGAGGUUCUCCGCUGACCGAGAUCGGAAGAGCACACGU
B3: target 1 A1U,C2G (mixed)
RNA 1: CACCCGUGCAAAAAUGCAGGGGUCUAAAACUGAGCGGAUAACCUCUCUAUGG
RNA 2: GGGAAUGGAUCCACAUCUACGAAUUCGUACCAUAGAGAGGUUAUCCGCUGUCCGAGAUCGGAAGAGCACACGU
B4: target 2 MT 5'PFS UCG 3'PFS AAA (mixed)
RNA 1: CACCCGUGCAAAAUUGCAGGGGUCUAAAACCUUCUCCAAAUUGUUUCAUCCU
RNA 2: GGGAAUGGAUCCACAUCUACGAAUUCUCGAGGAUGAAACAAUUUGGAGAAGAAAAGAUCGGAAGAGCACACGU
B5: target 2 MT 5'PFS GCG 3'PFS UCC (mixed)
RNA 1: CACCCGUGCAAAAUUGCAGGGGUCUAAAACCUUCUCCAAAUUGUUUCAUCCU
RNA 2: GGGAAUGGAUCCACAUCUACGAAUUCGCGAGGAUGAAACAAUUUGGAGAAGUCCAGAUCGGAAGAGCACACGU
B6: target 2 MT 5'PFS ACG 3'PFS CCG (mixed)
RNA 1: CACCCGUGCAAAAUUGCAGGGGUCUAAAACCUUCUCCAAAUUGUUUCAUCCU
RNA 2: GGGAAUGGAUCCACAUCUACGAAUUCACGAGGAUGAAACAAUUUGGAGAAGCCGAGAUCGGAAGAGCACACGU
B7: target 2 MT 5'PFS GUA 3'PFS AUC (mixed)
RNA 1: CACCCGUGCAAAAUUGCAGGGGUCUAAAACCUUCUCCAAAUUGUUUCAUCCU
RNA 2: GGGAAUGGAUCCACAUCUACGAAUUCGUAAGGAUGAAACAAUUUGGAGAAGAUCAGAUCGGAAGAGCACACGU
B8: target 2 MT 5'PFS UUU 3'PFS AUA (mixed)
RNA 1: CACCCGUGCAAAAUUGCAGGGGUCUAAAACCUUCUCCAAAUUGUUUCAUCCU
RNA 2: GGGAAUGGAUCCACAUCUACGAAUUCUUUAGGAUGAAACAAUUUGGAGAAGAUAAGAUCGGAAGAGCACACGU
B9: target 2 MT 5'PFS ACG 3'PFS CCA (mixed)
RNA 1: CACCCGUGCAAAAUUGCAGGGGUCUAAAACCUUCUCCAAAUUGUUUCAUCCU
RNA 2: GGGAAUGGAUCCACAUCUACGAAUUCACGAGGAUGAAACAAUUUGGAGAAGCCAAGAUCGGAAGAGCACACGU
B10: target 2 MT 5'PFS GUA 3'PFS AUG (mixed)
RNA 1: CACCCGUGCAAAAUUGCAGGGGUCUAAAACCUUCUCCAAAUUGUUUCAUCCU
RNA 2: GGGAAUGGAUCCACAUCUACGAAUUCGUAAGGAUGAAACAAUUUGGAGAAGAUGAGAUCGGAAGAGCACACGU
B11: target 2 MT 5'PFS CAG 3'PFS AUA (mixed)
RNA 1: CACCCGUGCAAAAUUGCAGGGGUCUAAAACCUUCUCCAAAUUGUUUCAUCCU
RNA 2: GGGAAUGGAUCCACAUCUACGAAUUCCAGAGGAUGAAACAAUUUGGAGAAGAUAAGAUCGGAAGAGCACACGU
B12: target 2 MT 5'PFS GCG 3'PFS UCG (mixed)
RNA 1: CACCCGUGCAAAAUUGCAGGGGUCUAAAACCUUCUCCAAAUUGUUUCAUCCU
RNA 2: GGGAAUGGAUCCACAUCUACGAAUUCGCGAGGAUGAAACAAUUUGGAGAAGUCGAGAUCGGAAGAGCACACGU
B13: target 2 MT 5'PFS ACU 3'PFS ACG (mixed)
RNA 1: CACCCGUGCAAAAUUGCAGGGGUCUAAAACCUUCUCCAAAUUGUUUCAUCCU
RNA 2: GGGAAUGGAUCCACAUCUACGAAUUCACUAGGAUGAAACAAUUUGGAGAAGACGAGAUCGGAAGAGCACACGU
B14: target 2 MT 5'PFS GCG 3'PFS UCU (mixed)
RNA 1: CACCCGUGCAAAAUUGCAGGGGUCUAAAACCUUCUCCAAAUUGUUUCAUCCU
RNA 2: GGGAAUGGAUCCACAUCUACGAAUUCGCGAGGAUGAAACAAUUUGGAGAAGUCUAGAUCGGAAGAGCACACGU
B15: target 2 MT 5'PFS GCG 3'PFS UCA (mixed)
RNA 1: CACCCGUGCAAAAUUGCAGGGGUCUAAAACCUUCUCCAAAUUGUUUCAUCCU
RNA 2: GGGAAUGGAUCCACAUCUACGAAUUCGCGAGGAUGAAACAAUUUGGAGAAGUCAAGAUCGGAAGAGCACACGU
B16: target 2 MT 5'PFS UUU 3'PFS AUG (mixed)
RNA 1: CACCCGUGCAAAAUUGCAGGGGUCUAAAACCUUCUCCAAAUUGUUUCAUCCU
RNA 2: GGGAAUGGAUCCACAUCUACGAAUUCUUUAGGAUGAAACAAUUUGGAGAAGAUGAGAUCGGAAGAGCACACGU
B17: target 2 MT 5'PFS AUG 3'PFS ACA (mixed)
RNA 1: CACCCGUGCAAAAUUGCAGGGGUCUAAAACCUUCUCCAAAUUGUUUCAUCCU
RNA 2: GGGAAUGGAUCCACAUCUACGAAUUCAUGAGGAUGAAACAAUUUGGAGAAGACAAGAUCGGAAGAGCACACGU
B18: target 2 MT 5'PFS CUG 3'PFS UGU (mixed)
RNA 1: CACCCGUGCAAAAUUGCAGGGGUCUAAAACCUUCUCCAAAUUGUUUCAUCCU
RNA 2: GGGAAUGGAUCCACAUCUACGAAUUCCUGAGGAUGAAACAAUUUGGAGAAGUGUAGAUCGGAAGAGCACACGU
B19: target 2 MT 5'PFS CUG 3'PFS UGC (mixed)
RNA 1: CACCCGUGCAAAAUUGCAGGGGUCUAAAACCUUCUCCAAAUUGUUUCAUCCU
RNA 2: GGGAAUGGAUCCACAUCUACGAAUUCCUGAGGAUGAAACAAUUUGGAGAAGUGCAGAUCGGAAGAGCACACGU
B20: target 2 MT 5'PFS CAG 3'PFS AUC (mixed)
RNA 1: CACCCGUGCAAAAUUGCAGGGGUCUAAAACCUUCUCCAAAUUGUUUCAUCCU
RNA 2: GGGAAUGGAUCCACAUCUACGAAUUCCAGAGGAUGAAACAAUUUGGAGAAGAUCAGAUCGGAAGAGCACACGU
B21: target 2 MT 5'PFS GCG 3'PFS AAG (mixed)
RNA 1: CACCCGUGCAAAAUUGCAGGGGUCUAAAACCUUCUCCAAAUUGUUUCAUCCU
RNA 2: GGGAAUGGAUCCACAUCUACGAAUUCGCGAGGAUGAAACAAUUUGGAGAAGAAGAGAUCGGAAGAGCACACGU
B22: target 2 MT 5'PFS GUA 3'PFS AUU (mixed)
RNA 1: CACCCGUGCAAAAUUGCAGGGGUCUAAAACCUUCUCCAAAUUGUUUCAUCCU
RNA 2: GGGAAUGGAUCCACAUCUACGAAUUCGUAAGGAUGAAACAAUUUGGAGAAGAUUAGAUCGGAAGAGCACACGU
B23: target 2 MT 5'PFS UUU 3'PFS AUC (mixed)
RNA 1: CACCCGUGCAAAAUUGCAGGGGUCUAAAACCUUCUCCAAAUUGUUUCAUCCU
RNA 2: GGGAAUGGAUCCACAUCUACGAAUUCUUUAGGAUGAAACAAUUUGGAGAAGAUCAGAUCGGAAGAGCACACGU
B24: target 2 MT 5'PFS AUG 3'PFS ACC (mixed)
RNA 1: CACCCGUGCAAAAUUGCAGGGGUCUAAAACCUUCUCCAAAUUGUUUCAUCCU
RNA 2: GGGAAUGGAUCCACAUCUACGAAUUCAUGAGGAUGAAACAAUUUGGAGAAGACCAGAUCGGAAGAGCACACGU

Target: T1, EsCas13d, nuclease-dead
Assay: crRNA (strand 1, pre-loaded); Mg2+; 40 mM Tris-HCl pH 7.5, 150 mM NaCl, 6 mM MgCl2, 1 mM DTT, 0.1% Tween-20, 0.2 mg/ml BSA; 25 C; 10 min per concentration, then washed
Conditions: tags: His6-TwinStrep-SUMO cleaved; N-terminal SNAP kept (SNAP-Surface 488); label: 3' end held by stalled T7 RNA polymerase

Row | Binder | Kd
1 | B1 | 6.5 ± 0.5 nM
2 | B2 | 15 ± 1.2 nM
3 | B3 | 9.2 ± 0.8 nM
4 | B4 | 16 ± 5 nM
5 | B5 | 30 ± 5 nM
6 | B6 | 9.9 ± 1.5 nM
7 | B7 | 8.9 ± 0.8 nM
8 | B8 | 6.5 ± 0.5 nM
9 | B9 | 19 ± 7 nM
10 | B10 | 7.8 ± 0.5 nM
11 | B11 | 4.5 ± 1 nM
12 | B12 | 20 ± 4 nM
13 | B13 | 9.5 ± 2.5 nM
14 | B14 | 31 ± 5 nM
15 | B15 | ~37 nM
16 | B16 | 7.5 ± 0.9 nM
17 | B17 | 13 ± 3.2 nM
18 | B18 | 3.72 ± 0.32 nM
19 | B19 | 2.56 ± 0.25 nM
20 | B20 | 7 ± 1.7 nM
21 | B21 | 10.2 ± 1.5 nM
22 | B22 | 6.8 ± 0.5 nM
23 | B23 | 6.9 ± 0.8 nM
24 | B24 | 18.8 ± 3.1 nM
